Assay results: doi:10.1101/2022.07.22.501112, “An unexpected histone chaperone function for the MIER1 histone deacetylase complex” (bioRxiv, 2022)
Numbered stars: 1 amine (or outer) side, 2 acyl side, 3 side chain; on linkers, the order of the positions; unused ones are H or OH. Square brackets hold non-standard residues; d marks the D form. Ends that are not written are not given here. Lys(Me3) = C[N+](C)(C)CCCC[C@H](N)C(=O)O; Ethylenediamine = C(CN[*:2])N[*:1]; 5‑FAM = fluorescent label

T1: E. coli expressed BAHD1(aa:588-780) (UniProt Q8TBE0 588-780)
T1 construct: BAHD1, BAH domain, residues 588-780; also called BAH domain of BAHD1; source: E. coli expressed
T1 sequence (looked up): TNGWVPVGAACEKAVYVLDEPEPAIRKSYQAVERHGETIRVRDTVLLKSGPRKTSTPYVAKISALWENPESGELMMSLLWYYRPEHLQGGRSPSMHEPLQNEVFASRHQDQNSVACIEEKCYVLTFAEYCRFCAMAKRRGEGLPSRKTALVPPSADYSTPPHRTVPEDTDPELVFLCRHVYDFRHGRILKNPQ


Assays:
[1] = target: T2, Full length HDAC1(aa:1-482) (UniProt Q13547 1-482); experiment: co-IP + SEC; FLAG-tagged MIER1 construct co-expressed with untagged HDAC1 in HEK293F; anti-FLAG M2 resin, TEV cleavage, Superdex S200 in 25 mM Tris/HCl pH 7.5, 50 mM potassium acetate, 0.5 mM TCEP; SDS-PAGE, bands identified by MS; conditions: partners not purified
T2 construct: also called histone deacetylase 1

[2] = target: T1, E. coli expressed BAHD1(aa:588-780); experiment: fluorescence polarisation; 5 nM 5-FAM labelled histone peptide, BAHD1(aa:588-780) 0-142 uM, 25 mM Tris/Cl pH 7.5, 50 mM NaCl, 15 mins at 37 C; one-site binding model; conditions: both partners purified

T2 sequence (Q13547 whole entry): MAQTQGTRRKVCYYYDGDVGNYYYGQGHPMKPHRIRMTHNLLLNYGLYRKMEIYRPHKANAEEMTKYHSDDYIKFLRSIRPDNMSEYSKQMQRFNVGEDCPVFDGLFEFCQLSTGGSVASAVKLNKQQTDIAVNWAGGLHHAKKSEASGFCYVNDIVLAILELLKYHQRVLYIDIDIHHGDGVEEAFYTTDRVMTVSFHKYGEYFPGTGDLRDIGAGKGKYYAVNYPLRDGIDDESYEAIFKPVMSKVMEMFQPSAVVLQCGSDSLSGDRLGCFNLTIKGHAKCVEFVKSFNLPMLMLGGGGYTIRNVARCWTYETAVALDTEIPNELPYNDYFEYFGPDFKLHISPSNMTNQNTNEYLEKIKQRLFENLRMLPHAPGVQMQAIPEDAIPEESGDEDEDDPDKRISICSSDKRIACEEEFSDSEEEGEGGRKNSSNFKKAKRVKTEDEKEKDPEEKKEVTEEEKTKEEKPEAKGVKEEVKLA

Binder	binding result [1]	binding result [2]
FLAG-tagged MIER1(aa:171-350), ELM2-SANT domain (domain or fragment, human, UniProt Q8N108 171-350, looked up, Captured on anti-FLAG resin by the tag; the tag was then cut off by TEV protease before gel filtration and SEC-MALS (21 kDa counted for the fragment); also called MIER ELM2-SANT; source: HEK293F, co-transfected with HDAC1; anti-FLAG resin, TEV cleavage, Superdex S200; not shown: 10xHis-3xFLAG, N-terminal, kept) DYIPSEDWKKEIMVGSMFQAEIPVGICRYKENEKVYENDDQLLWDPEYLPEDKVIIFLKDASRRTGDEKGVEAIPEGSHIKDNEQALYELVKCNFDTEEALRRLRFNVKAAREELSVWTEEECRNFEQGLKAYGKDFHLIQANKVRTRSVGECVAFYYMWKKSERYDFFAQQTRFGKKKY	binds	–
PRKQLATKAAR[Lys(Me3)]SAPATGG-{Ethylenediamine-4‑Abu-5‑FAM} (The twelfth letter (K27) is trimethyl-lysine; also called H3 histone tail bearing a K27me3 modification; source: synthetic peptide, bought: Cambridge Research Biochemicals) [H3 16-35 K27me3 peptide]	–	binds
